Experimental data from patent publication US20230257469A1 (SINOCELLTECH, published 2023).
Read-outs that look alike come from different tables or passages of the source.

What was measured:
EGFR on tumor cells [1] = molecular target: T1, EGFR on tumor cells (UniProt P00533 25-1210, limits assumed); assay: cell-based or functional assay
[2] = molecular target: T2, Recombinant human EGFR-His protein (human, UniProt P00533 25-645); assay: ELISA as in Example 1.2.1
T2 construct: Bought protein; also called recombinant human EGFR protein; human EGFR protein; not shown: His tag

EGFR on tumor cells [3] = molecular target: T1, EGFR on tumor cells; assay: cell-based or functional assay; remark: listed apart in the source
[4] = molecular target: T2, Recombinant human EGFR-His protein; assay: BLI (Fortebio OctetRED96e), biotinylated recombinant human EGFR protein, fit over several concentrations
EGFR on tumor cells [5] = molecular target: T1, EGFR on tumor cells; assay: cell-based or functional assay; remark: listed apart in the source
EGFR on tumor cells [6] = molecular target: T1, EGFR on tumor cells; assay: cell-based or functional assay; remark: listed apart in the source
[7] = molecular target: T2, Recombinant human EGFR-His protein; assay: ELISA as in Example 1.2.1; EC50 counted on the coated EGFR-His concentration
[8] = molecular target: T2, Recombinant human EGFR-His protein; assay: ELISA; EGFR-His coated at 1.37-3000 ng/mL, antibody at 13.89 nM; EC50 counted on the coated antigen concentration
[9] = molecular target: T2, Recombinant human EGFR-His protein; assay: ELISA of expressed phage-library clones on recombinant human EGFR protein

SCT200 (antibody)
EC50 (nM), inhibition of proliferation of Fadu cells, ligand: 1 µg /mL EREG (EGFR on tumor cells [1]): 14.5 nM | EC50 (nM), inhibition of proliferation of Fadu cells, ligand: None (EGFR on tumor cells [1]): 0.129 nM | EC50 (nM), inhibition of proliferation of MDA-MB-468 cells, ligand: 8 ng/mL HB-EGF (EGFR on tumor cells [1]): 7.52 nM | EC50 (nM), inhibition of proliferation of MDA-MB-468 cells, ligand: 1 µg/mL EREG (EGFR on tumor cells [1]): 1.44 nM | EC50 (nM), inhibition of proliferation of MDA-MB-468 cells, ligand: None (EGFR on tumor cells [1]): 1.97 nM | Maximum inhibition rate (%), proliferation of Fadu cells, ligand: 4 ng/mL EGF (EGFR on tumor cells [1]): 68.5% | Maximum inhibition rate (%), proliferation of Fadu cells, ligand: 8 ng/mL HB-EGF (EGFR on tumor cells [1]): 65% | Maximum inhibition rate (%), proliferation of Fadu cells, ligand: 1 µg /mL EREG (EGFR on tumor cells [1]): 48.3% | Maximum inhibition rate (%), proliferation of Fadu cells, ligand: None (EGFR on tumor cells [1]): 49.7% | Maximum inhibition rate (%), proliferation of MDA-MB-468 cells, ligand: 8 ng/mL HB-EGF (EGFR on tumor cells [1]): 53.4% | Maximum inhibition rate (%), proliferation of MDA-MB-468 cells, ligand: 200 ng/mL BTC (EGFR on tumor cells [1]): 40.9% | Maximum inhibition rate (%), proliferation of MDA-MB-468 cells, ligand: 1 µg/mL EREG (EGFR on tumor cells [1]): 66.7% | Maximum inhibition rate (%), proliferation of MDA-MB-468 cells, ligand: None (EGFR on tumor cells [1]): 52.3% | EC50 [2]: 0.167 µg/mL

B1: humanized antibody EGFR-HPA8 (antibody, human IgG1, kappa, V domains shown)
VH: EVQLVQSGAEVKKPGATVKISCKVSGYTFTTYYTHWVKQAPGKGLEWIGWIYPGDVNTKYNEKFKGRVTLTADTSTDTAYMELSSLRSEDTAVYYCAREDPGSNYFDYWGQGTLVTVSS
VL: DIQMTQSPSSLSASVGDRVTITCRASENIYYSLAWYQQKPGKAPQLLIYITDGLADGVPSRFSGSGSGTDYTLKIDSLQPEDFATYYCKQSYDVPLTFGGGTKVEIKR
notes: IgG1/kappa; expressed in HEK-293 cells (fut8 knockout), ADCC-enhanced; also called EGFR-HPA8-Ae0
EC50 (nM), inhibition of proliferation of MDA-MB-468 cells, ligand: 8 ng/mL HB-EGF (EGFR on tumor cells [3]): 2.64 nM | EC50 (nM), inhibition of proliferation of MDA-MB-468 cells, ligand: 1 µg/mL EREG (EGFR on tumor cells [3]): 0.81 nM | EC50 (nM), inhibition of proliferation of MDA-MB-468 cells, ligand: None (EGFR on tumor cells [3]): 0.9 nM | Kd [4]: 0.0069 nM | koff [4]: 1.1e-05 s⁻¹ | kon [4]: 1.59e+06 M⁻¹ s⁻¹ | EC50 (nM), inhibition of proliferation of Fadu cells, ligand: 1 µg /mL EREG (EGFR on tumor cells [5]): 10.9 nM | EC50 (nM), inhibition of proliferation of Fadu cells, ligand: None (EGFR on tumor cells [5]): 0.126 nM | EC50 for the induction of ADCC, recombinant CD16a reporter gene system (Jurkat-NFAT-Luc2p-CD16A effector cells, A431 target cells) (EGFR on tumor cells [6]): 0.008 nM | EC50 [7]: 0.117 µg/mL

B2: human-mouse chimeric antibody EGFR-mhPA8 (antibody, human IgG1, kappa, V domains shown)
VH: QVQLQQSGPDLVKPGASVRISCKVSGYTFTTYYTHWVKQRPGRGLEWIGWIYPGDVNTKYNEKFKGKATLTADKTSSTAYMQLSSLTSEDSAVYFCAREDPGSNYFDYWGQGTTLTVSS
VL: DIQMTQSPASLAASVGETVTITCRASENIYYSLAWYQQKEGKSPQLLIYITNGLADGVPSRFSGSGSGTQYSMKIDSMQPEDTATYFCKQSYDVPLTFGAGTKLEMKR
notes: Human IgG1 and kappa constant regions; also called murine antibody EGFR-mhPA8
EC50 of inhibition of proliferation of MDA-MB-468 cells (WST-8) (EGFR on tumor cells [6]): 2.78 nM | EC50 [8]: 0.129 µg/mL

B3: EGFR-mhPA8 scFv antibody (scFv)
scFv: DIQMTQSPASLAASVGETVTITCRASENIYYSLAWYQQKEGKSPQLLIYITNGLADGVPSRFSGSGSGTQYSMKIDSMQPEDTATYFCKQSYDVPLTFGAGTKLEMKSSGGGGSGGGGGGSSRSSQVQLQQSGPDLVKPGASVRISCKVSGYTFTTYYTHWVKQRPGRGLEWIGWIYPGDVNTKYNEKFKGKATLTADKTSSTAYMQLSSLTSEDSAVYFCAREDPGSNYFDYWGQGTTLTVSS
notes: Screened as a clone of a phage display library in pComb3x; also called EGFR-mhPA8 scFv antibody clone; murine antibody scFv
binding result [9]: binds
